Results published in patent publication US20230002466A1 (ELPIS BIOPHARMACEUTICALS, published 2023).
Where two headings read alike, the source gives them in different places. Blank lines part the entries; values can stand above or below the binder they belong to.

Columns and labels:
[1] = biological target: T1, human IL2Rβ (human, UniProt P14784 27-239); assay: SPR, single concentration
T1 construct: also called IL2β; CD122
T1 sequence (looked up): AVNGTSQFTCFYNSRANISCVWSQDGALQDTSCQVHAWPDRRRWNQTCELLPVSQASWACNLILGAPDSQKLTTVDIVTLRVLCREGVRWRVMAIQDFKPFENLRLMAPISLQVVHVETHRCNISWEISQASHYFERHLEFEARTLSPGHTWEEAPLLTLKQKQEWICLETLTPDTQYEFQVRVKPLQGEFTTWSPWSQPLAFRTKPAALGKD

[2] = biological target: T2, human IL2Rα (human, UniProt P01589 22-213, limits assumed); assay: SPR (Biacore T200), human IL2Rα, single concentration of the IL2 protein, not printed (Example 13)
T2 construct: also called IL2α; CD25
T2 sequence (looked up): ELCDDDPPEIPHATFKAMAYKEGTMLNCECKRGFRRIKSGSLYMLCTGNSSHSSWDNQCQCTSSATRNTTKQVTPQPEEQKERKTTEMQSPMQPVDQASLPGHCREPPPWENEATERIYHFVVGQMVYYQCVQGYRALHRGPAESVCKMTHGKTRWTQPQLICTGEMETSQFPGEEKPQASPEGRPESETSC

[3] = biological target: T3, human IL2Rβ Fc fusion protein (human, UniProt P14784 27-239); assay: ELISA, Fc-tagged receptor coated, anti-HisTag-HRP
T3 construct: also called Recombinant Fc-tagged human IL2Rβ; not shown: Fc
T3 sequence (looked up): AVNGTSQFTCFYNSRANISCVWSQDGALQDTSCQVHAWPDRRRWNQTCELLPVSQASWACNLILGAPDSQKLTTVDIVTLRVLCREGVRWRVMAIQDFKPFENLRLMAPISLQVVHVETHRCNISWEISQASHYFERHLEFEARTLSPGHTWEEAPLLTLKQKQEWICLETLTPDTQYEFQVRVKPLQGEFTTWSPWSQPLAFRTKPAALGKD
Summary of the method: (§1)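 IL2 mutants, diluted from 1000 nM to 0 nM, were incubated 2 h at RT on plates coated overnight at 4 °C with Fc-tagged human IL2Rα (or IL2Rβ). Bound protein detected with anti-HisTag-HRP (1:5000, 1 h) and TMB. Absorbance read at 450 nm after acid stop.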

[4] = biological target: T4, human IL2Rα Fc fusion protein (human, UniProt P01589 22-213, limits assumed); assay: ELISA, single point, Fc-tagged human IL2Rα coated, anti-His-HRP; concentration not printed (Example 14)
T4 construct: also called Recombinant Fc-tagged human IL2Rα; not shown: Fc
T4 sequence (looked up): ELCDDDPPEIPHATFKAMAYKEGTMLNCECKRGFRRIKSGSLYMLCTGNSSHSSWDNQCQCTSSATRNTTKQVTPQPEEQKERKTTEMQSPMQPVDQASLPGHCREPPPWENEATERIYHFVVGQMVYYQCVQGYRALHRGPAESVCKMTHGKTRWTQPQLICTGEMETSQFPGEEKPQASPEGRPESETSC
Method: Recombinant Fc-tagged human IL2Rα and IL2Rβ were added in 25 uL of 1×PBS to wells of 384-well plate and incubated overnight at 4° C. to coat the plates. Plates were washed three times with 0.05% Tween20/1×PBS. Plates were blocked with 100 uL of SuperBlock for 1 hr at RT and then washed 3 times with 0.05% Tween20/1×PBS. IL2 mutants were diluted in 0.05% Tween 20/1×PBS from 1000 nM to 0 nM and added to plates for 2 hrs at room temperature. Plates were then washed 6 times with 0.05% Tween20/1×PBS. Anti-HisTag-HRP was diluted 1:5000 in 0.05% Tween20/1×PBS and added to plates for 1 hr at RT. Plates were then washed 6 times with 0.05% Tween 20/1×PBS, and TMB was added to develop blue color. Reactions were stopped with 2N […] and light absorbance at 450 nm was read on a BioTek plate reader.

[5] = biological target: T4, human IL2Rα Fc fusion protein; assay: ELISA, Fc-tagged receptor coated, anti-HisTag-HRP
Summary of the method: as §1

[6] = biological target: T4, human IL2Rα Fc fusion protein; assay: ELISA, receptor-Fc coated, anti-Flag HRP
Summary of the method: (§2)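 Plates coated overnight at 4 C with IL2Rα or IL2Rβ Fc fusion at 2 ug/mL, then blocked. Flag-tagged IL2 mutant dilutions were added in duplicate, and binding was detected with anti-Flag HRP (1:5000) and TMB for 5 min. EC50 was fitted from OD450.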

[7] = biological target: T3, human IL2Rβ Fc fusion protein; assay: ELISA, receptor-Fc coated, anti-Flag HRP
Summary of the method: as §2

[8] = biological target: T1, human IL2Rβ; assay: SPR, IL2Rβ captured on Protein A chip, steady state affinity fitting
Method: (§3) The assay was run with Biacore T200 control software version 2.0. For each cycle, 1 ug/mL of human IL2Rβ was captured for 60 seconds at flow rate of 10 uL/min on flow cell 2 in 1×HBSP buffer on Protein A sensor chip. 100 nM of HIS and Flag tag purified each IL2 mutant was 2-fold serial diluted and injected onto both reference flow cell 1 and IL2Rβ captured flow cell 2 for 150 seconds at flow rate of 30 uL/min followed by washing for 300 seconds. The flow cells were then regenerated with Glycine pH2 for 60 seconds at a flow rate of 30 uL/min. The assay was set up with 8 serial diluted concentration points in 96-well format. The kinetics data was analyzed with Biacore T200 evaluation software 3.0. The specific binding response unit was derived from subtraction of binding to reference flow cell 1 from target flow cell 2 (FIGS. 16A-16F, Table 10).

[9] = biological target: T1, human IL2Rβ; assay: SPR, IL2Rβ captured on Protein A chip
Method: Kinetic analysis of the receptor binding activities of IL2Rβ agonist with IL2Rα reduced activity mutations have been assessed by SPR technology with Biacore T200. The assay was run with Biacore T200 control software version 2.0. For each cycle, 1 ug/mL of human IL2Rβ was captured for 60 seconds at flow rate of 10 ul/min on flow cell 2 in 1×HBSP buffer on Protein A sensor chip. 100 nM of HIS and Flag tag purified each IL2 mutant was 2 fold serial diluted and injected onto both reference flow cell 1 and IL2Rβ captured flow cell 2 for 150 seconds at flow rate of 30 ul/mins followed by wash for 300 seconds. The flow cells were then regenerated with Glycine pH2 for 60 seconds at flow rate of 30 ul/mins. The assay was set up with 8 serial diluted concentration points in 96 well format. The kinetics data was analyzed with Biacore T200 evaluation software 3.0. The specific binding response unit was derived from subtraction of binding to reference flow cell 1 from target flow cell 2.

[10] = biological target: T2, human IL2Rα; assay: SPR (Biacore T200), human IL2Rα, IL2 mutant in two-fold dilutions from 100 nM (Example 13)
[11] = biological target: T1, human IL2Rβ; assay: SPR, IL2Rβ captured on Protein A chip; remark: listed apart in the source
Method: as §3

[12] = biological target: T2, human IL2Rα; assay: SPR (Biacore T200), human IL2Rα, IL2 mutant in two-fold dilutions from 100 nM (Example 13); remark: listed apart in the source
[13] = biological target: T2, human IL2Rα; assay: as above; remark: listed apart in the source
[14] = biological target: T1, human IL2Rβ; assay: SPR, multi-concentration
[15] = biological target: T2, human IL2Rα; assay: SPR (Biacore T200), human IL2Rα, one trace per clone drawn, concentrations not printed (Example 13)
[16] = biological target: T2, human IL2Rα; assay: SPR (Biacore T200), human IL2Rα, IL2 mutant in two-fold dilutions from 100 nM (Example 13); remark: listed apart in the source

- Kd [1]: 2.54 nM
- EC50 [3]: 64.1 nM
- binding result [4]: no binding (tested: not printed)
B1: EP341 (ligand)
chain: APTSSSTKKTQLQLEHLLLDLQMILNGINNYKNPKLTDMLTFKFSMPKKATELKHLQCLEEELKPLEEVLNLAQSKNFHLTARDAIDNINVIVQELKGSETTFMCEYADETATIVEFLNRWITFSQSIISTLTGSHHHHHH
- binding result [2]: no binding (tested: single concentration, not printed)

- Kd [1]: 12.5 nM
- EC50 [3]: 152 nM
B2: EP345 (ligand)
chain: APTSSSTKKTQLQLEHLLLDLQMILNGINNYKNPKLTVMLTFKFSMPKKATELKHLQCLEEELKPLEEVLNLAQSKNFHLTARDAIDNINVIVQELKGSETTFMCEYADETATIVEFLNRWITFSQSIISTLTGSHHHHHH

- EC50 [5]: 13.8 nM
- EC50 [3]: 24.5 nM
- EC50 [6]: 13 nM
- EC50 [7]: 2.2 nM
- Kd [8]: 9.11 nM
B3: EP252 (ligand)
chain: APTSSSTKKTQLQLEHLLLDLQMILNGINNYKNPKLTRMLTFKFYMPKKATELKHLQCLEEELKPLEEVLNLAQSKNFHLTPRDAIDNIRVIVQELKGSETTFMCEYADETATIVEFLNRWITFCQSIISTLT
notes: not shown: His and Flag tags

- Kd [9]: 0.108 nM
- koff [9]: 0.000397 s⁻¹
- kon [9]: 3.68e+06 M⁻¹ s⁻¹
- binding result [10]: no binding (tested: 100 nM)
B4: EP402 (ligand)
chain: APTSSSTKKTQLQLEHLLLDLQMILNGINNYKNPSLTRMLTGKFYMPKKATELKHLQCLEEELKPLEEVLNLAQSKNFHLGVTDSISNAIVLARELKGSETTFMCEYADETATIVEFLNRWITFCQSIISTLT
notes: not shown: His and Flag tags

- Kd [11]: 8.81 nM
- koff [11]: 0.0301 s⁻¹
- kon [11]: 3.42e+06 M⁻¹ s⁻¹
- EC50 [5]: 9.1 nM
- EC50 [3]: 119 nM
- EC50 [6]: 2.5 nM
- EC50 [7]: 6.5 nM
B5: EP258 (ligand)
chain: APTSSSTKKTQLQLEHLLLDLQMILNGINNYKNPKLTRMLTFKFYMPKKATELKHLQCLEEELKPLEEVLNLAQSKNFHLTARDAISNINVIIQELKGSETTFMCEYADETATIVEFLNRWITFCQSIISTLT
notes: not shown: His and Flag tags

- EC50 [5]: 8.9 nM
- EC50 [3]: 52.8 nM
- EC50 [6]: 48.5 nM
- EC50 [7]: 4.8 nM
- Kd [8]: 29.5 nM
B6: EP253 (ligand)
chain: APTSSSTKKTQLQLEHLLLDLQMILNGINNYKNPKLTRMLTFKFYMPKKATELKHLQCLEEELKPLEEVLNLAQSKNFHLTPRDAIDNIRVIILELKGSETTFMCEYADETATIVEFLNRWITFCQSIISTLT
notes: not shown: His and Flag tags

- binding result [12]: no binding (tested: 100 nM)
- Kd [9]: 0.855 nM
- koff [9]: 0.00616 s⁻¹
- kon [9]: 7.21e+06 M⁻¹ s⁻¹
B7: EP401 (ligand)
chain: APTSSSTKKTQLQLEHLLLDLQMILNGINNYKNPSLTRMLTGKFYMPKKATELKHLQCLEEELKPLEEVLNLAQSKNFHLTARDAVDNMRVIIQELKGSETTFMCEYADETATIVEFLNRWITFCQSIISTLT
notes: not shown: His and Flag tags

- binding result [13]: no binding (tested: 100 nM)
- Kd [9]: 0.233 nM
- koff [9]: 0.000598 s⁻¹
- kon [9]: 2.56e+06 M⁻¹ s⁻¹
B8: EP408 (ligand)
chain: APTSSSTKKTQLQLEHLLLDLQMILNGINNYKNPKLTDMLTFKFSMPKKATELKHLQCLEEELKPLEEVLNLAQSKNFHLGVTDSISNAIVLARELKGSETTFMCEYADETATIVEFLNRWITFCQSIISTLT
notes: not shown: His and Flag tags

- Kd [14]: 38.3 nM
- binding result [15]: no binding (tested: not printed)
- EC50 [3]: 105 nM
- binding result [4]: no binding (tested: not printed)
B9: EP338 (ligand)
chain: APTSSSTKKTQLQLEHLLLDLQMILNGINNYKNPLLTDMLTRKFYMPKKATELKHLQCLEEELKPLEEVLNLAQSKNFHLTARDAISNINVIIQELKGSETTFMCEYADETATIVEFLNRWITFCQSIISTLT
notes: not shown: His and Flag tags

- Kd [14]: 35.9 nM
- binding result [15]: no binding (tested: not printed)
- EC50 [3]: 96.3 nM
- binding result [4]: no binding (tested: not printed)
B10: EP339 (ligand)
chain: APTSSSTKKTQLQLEHLLLDLQMILNGINNYKNPLLTDMLTRKFYMPKKATELKHLQCLEEELKPLEEVLNLAQSKNFHLTPRDAIDNIRVIVQELKGSETTFMCEYADETATIVEFLNRWITFCQSIISTLT
notes: not shown: His and Flag tags

- binding result [16]: no binding (tested: 100 nM)
- Kd [9]: 0.611 nM
- koff [9]: 0.00509 s⁻¹
- kon [9]: 8.34e+06 M⁻¹ s⁻¹
B11: EP407 (ligand)
chain: APTSSSTKKTQLQLEHLLLDLQMILNGINNYKNPKLTDMLTFKFSMPKKATELKHLQCLEEELKPLEEVLNLAQSKNFHLTARDAVDNMRVIIQELKGSETTFMCEYADETATIVEFLNRWITFCQSIISTLT
notes: not shown: His and Flag tags
